Measurements from US10494415B2, “Insulin-like growth factor 2 (IGF2) binding agents” (Cancer Research Technology Limited, priority 2015, dated 2019).

What was measured:
SKNMC-IGF2^104 cells = test: IGF2-TRAP synthetic lethality screen (resazurin viability); assay type: cell-based, human; conditions: fixed concentration of IGF2-TRAP alone, assay end point of 72 hrs
Experimental: For synthetic lethality screens (Target Discovery Institute, University of Oxford), either 2,500 or 5,000 SKNMC-IGF2104-IRES-luc cells were plated in medium containing 0.5% charcoal stripped FBS in 384 well plates and the IGF2-TRAP was added 24 h later to half of the plates. Using automated dispensing 307 oncology drugs that have been tested in man (TDI expanded Oncology Drug library) were added to cells 3 hrs later 10 μM, 1 μM, 100 nM and 10 nM, in the presence and absence of 250 nM IGF2-TRAP. After 48 hr of incubation, resazurin was added to a final concentration of 10 μg/mL and the fluorescence (Ex: 560 nm, Em: 590 nm) recorded at 2 hr. […] Pearson's product-moment correlation coefficient (r) was calculated to determine replicate correlation. […]
The interaction score was calculated where v was the viability readout for the drug condition, x^− was the sample mean of the negative controls and s was the sample standard deviation of the negative controls, z was calculated as z_treatment=(v−x^−)/s. z_(no_IT) was calculated from PBS control plates, comparing ‘drug d’ to same-plate negative controls ‘cells+DMSO’. z_IT was calculated from treated plates, comparing ‘drug d+IGF2-TRAP (IT)’ to same-plate negative controls ‘cells+IT+DMSO’. […] Interaction scores were calculated for each replicate r_(d,1)/r_(d,2)/r_(d,3) independently. […]

[1] = system: SKNMC-IGF2^1-67 xenografts; test: IGF2 dependent human cancer cell xenografts; assay type: in vivo, mouse; conditions: for Xenograft growth: CD-1 nude mice, 40 mg kg-1 per week by osmotic mini-pump
From the text: (§1) IGF2 sensitive autocrine cell line SKNMC-IGF2^67 was generated from the Ewing sarcoma cell line SKNMC by retroviral infection with constructs containing IRES-luciferase. Autocrine growth and signalling function of the SKNMC line, including inhibition by IGF2-TRAP, was confirmed in culture using an MTS reagent (Cell Titer 96 Aqueous One Solution cell proliferation assay, Promega). For xenografts, approximately 5×10^6 SKNMC-IGF2^67 cells harvested during the growth phase of sub-confluent cell cultures were then mixed with matrigel (50:50 v/v, 100 μl/mouse) and injected (sub-cutaneous) into CD-1® (Crl:NU-1 Foxn1nu) female mice, 24 hours after establishing ALZET® mini-pump placement delivering a single concentration 40 mg kg-1 per week either IGF2-TRAP or PBS vehicle control. Tumour growth was monitored with both caliper measurements and bioluminescence. The latter was performed with a Bruker Xtreme 2D optical system 15 minutes (10 second exposure) following luciferin injection (100 μl per 20 g body weight). Tumours were excised at 28 days or when size was >1000 mm3. Fixation in formalin, embedding in paraffin and Hematoxylin and Eosin (H&E) staining was done using standard protocols. Apoptotic area was quantified using automated image analysis of brightfield images in ImageJ, applying H AEC color deconvolution filter and automated thresholding. Serum was also collected at the time of culling.

[2] = system: IGF2^1-67-induced hypoglycaemia; test: IGF2-induced hypoglycaemia mouse model; assay type: in vivo; conditions: co-injected
From the text: All animal experiments were approved by the animal use ethical committee of Oxford University and fully complied with UK Home Office guidelines (PPL 30/2695). Wild-type C57BL/6J and 129S2 mice were used throughout. Mice were anaesthetised using a rising concentration of isoflurane in oxygenated air and maintained using 2% isoflurane with 2 L min^−1 oxygen. Blood glucose measurements were taken using an Advantage diabetic glucose meter (Roche Diagnostics, Burgess Hill, UK). In order to test the direct inhibition of IGF2-induced hypoglycaemia by Fc-domain 11^AB5, blood glucose levels were allowed to normalise for 30 min prior to taking a baseline blood glucose reading, then either 1 mg kg^−1 IGF2 only (R&D systems), […], Fc-domain 11^RHH, or Fc-domain 11^I1572A ([…]) was injected. Blood glucose measurements were taken every 10 min for the following hour. For the Fc-domain 11^AB5 mouse preloading experiment, 11.7 mg kg^−1 Fc-domain 11^AB5 or PBS, as negative control, was injected immediately after induction of anaesthesia, 30 mins later a baseline blood glucose reading was taken and 1 mg kg^−1 IGF2 ([…]) was injected, readings were then taken every 10 min for the following hour. For the mouse IGF2 preloading experiment, 1 mg kg^−1 IGF2 was injected immediately after induction of anaesthesia, 30 min later a baseline blood glucose reading was taken and either 11.7 mg kg^−1 Fc-domain 11^AB5 ([…]) or PBS was injected, readings were then taken every 10 min for the following hour.

SKNMC-IGF2^1-67 cells = test: Growth/viability of IGF2-autocrine SKNMC cells in culture (MTS); assay type: cell-based, human
From the text: as §1, with “Serum was also collected at the time of culling.” left out

B1: Fc-domain 11^AB5-RHH: Fc-fusion of domain 11^AB5-RHH (IGF2-TRAP); IgG2 Fc form purified from CHO cells used for xenografts (protein)
chain: NEHDDCQVTNPSTGHLFDLSSLSGRAGFTAAYAKGWGVYMSICGENENCPPGVGACFGRTRISVGKANKRLRYVDQVLQLVYKDGSHCPSKHGLSYKSVISFVCRPEAGPTNRPMLISLDKQTCTLFFSWHTPLACEQAT
modifications: left off: a dimerising Fc or GST
notes: Fc-fusion of domain 11^AB5-RHH (IGF2-TRAP); IgG2 Fc form purified from CHO cells used for xenografts
SKNMC-IGF2^104 cells
  reduction in cell viability: 10-20%
[1]; listed as Fc-domain 11AB5-RHH
  Xenograft growth: Reduced xenograft growth rates
[1]; listed as IGF2-TRAP
  Xenograft growth: reduces IGF2 dependent xenograft growth
[1]; Day 28
  Total serum IGF1, Growth Hormone or IGFBP levels: without alteration
[1]; Day 28, listed as Fc-domain 11AB5-RHH
  Serum IGF2: less evident
[1]; Day 28, listed as IGF2-TRAP
  Serum IGF2: reduced levels of serum IGF2
[2]; molar ratio 1:0.23
  IGF2-induced hypoglycaemia (blood glucose): more efficient IGF2 antagonist than Fc-domain 11^AB5
[2]; molar ratio 1:0.23, listed as domain 11^AB5-RHH
  IGF2-induced hypoglycaemia (blood glucose): significantly counteracted IGF2-induced hypoglycaemia
[2]; molar ratio 1:0.5
  IGF2-induced hypoglycaemia (blood glucose): abrogation
SKNMC-IGF2^1-67 cells; listed as Fc-domain 11AB5-RHH
  Growth of SKNMC cells expressing constitutive IGF2^1-67 in culture: inhibited
SKNMC-IGF2^1-67 cells; listed as IGF2-TRAP
  Growth of SKNMC cells expressing constitutive IGF2^1-67 in culture: decreases the cell viability
